Values of other authors in patent US8633160B2, “Small molecule inhibitors of PDZ interactions” (Nono Inc., priority 2005, dated 2014).

Assays:
N-type calcium channel = N-type calcium channel (Homo sapiens, UniProt Q00975); conditions: data of U.S. Provisional Application No. 60/904,507; cited from earlier work
[1] = system: middle cerebral artery occlusion (MCAO) model of stroke; conditions: rat, previously tested; cited from earlier work

N-type calcium channel, sequence (Q00975 whole entry): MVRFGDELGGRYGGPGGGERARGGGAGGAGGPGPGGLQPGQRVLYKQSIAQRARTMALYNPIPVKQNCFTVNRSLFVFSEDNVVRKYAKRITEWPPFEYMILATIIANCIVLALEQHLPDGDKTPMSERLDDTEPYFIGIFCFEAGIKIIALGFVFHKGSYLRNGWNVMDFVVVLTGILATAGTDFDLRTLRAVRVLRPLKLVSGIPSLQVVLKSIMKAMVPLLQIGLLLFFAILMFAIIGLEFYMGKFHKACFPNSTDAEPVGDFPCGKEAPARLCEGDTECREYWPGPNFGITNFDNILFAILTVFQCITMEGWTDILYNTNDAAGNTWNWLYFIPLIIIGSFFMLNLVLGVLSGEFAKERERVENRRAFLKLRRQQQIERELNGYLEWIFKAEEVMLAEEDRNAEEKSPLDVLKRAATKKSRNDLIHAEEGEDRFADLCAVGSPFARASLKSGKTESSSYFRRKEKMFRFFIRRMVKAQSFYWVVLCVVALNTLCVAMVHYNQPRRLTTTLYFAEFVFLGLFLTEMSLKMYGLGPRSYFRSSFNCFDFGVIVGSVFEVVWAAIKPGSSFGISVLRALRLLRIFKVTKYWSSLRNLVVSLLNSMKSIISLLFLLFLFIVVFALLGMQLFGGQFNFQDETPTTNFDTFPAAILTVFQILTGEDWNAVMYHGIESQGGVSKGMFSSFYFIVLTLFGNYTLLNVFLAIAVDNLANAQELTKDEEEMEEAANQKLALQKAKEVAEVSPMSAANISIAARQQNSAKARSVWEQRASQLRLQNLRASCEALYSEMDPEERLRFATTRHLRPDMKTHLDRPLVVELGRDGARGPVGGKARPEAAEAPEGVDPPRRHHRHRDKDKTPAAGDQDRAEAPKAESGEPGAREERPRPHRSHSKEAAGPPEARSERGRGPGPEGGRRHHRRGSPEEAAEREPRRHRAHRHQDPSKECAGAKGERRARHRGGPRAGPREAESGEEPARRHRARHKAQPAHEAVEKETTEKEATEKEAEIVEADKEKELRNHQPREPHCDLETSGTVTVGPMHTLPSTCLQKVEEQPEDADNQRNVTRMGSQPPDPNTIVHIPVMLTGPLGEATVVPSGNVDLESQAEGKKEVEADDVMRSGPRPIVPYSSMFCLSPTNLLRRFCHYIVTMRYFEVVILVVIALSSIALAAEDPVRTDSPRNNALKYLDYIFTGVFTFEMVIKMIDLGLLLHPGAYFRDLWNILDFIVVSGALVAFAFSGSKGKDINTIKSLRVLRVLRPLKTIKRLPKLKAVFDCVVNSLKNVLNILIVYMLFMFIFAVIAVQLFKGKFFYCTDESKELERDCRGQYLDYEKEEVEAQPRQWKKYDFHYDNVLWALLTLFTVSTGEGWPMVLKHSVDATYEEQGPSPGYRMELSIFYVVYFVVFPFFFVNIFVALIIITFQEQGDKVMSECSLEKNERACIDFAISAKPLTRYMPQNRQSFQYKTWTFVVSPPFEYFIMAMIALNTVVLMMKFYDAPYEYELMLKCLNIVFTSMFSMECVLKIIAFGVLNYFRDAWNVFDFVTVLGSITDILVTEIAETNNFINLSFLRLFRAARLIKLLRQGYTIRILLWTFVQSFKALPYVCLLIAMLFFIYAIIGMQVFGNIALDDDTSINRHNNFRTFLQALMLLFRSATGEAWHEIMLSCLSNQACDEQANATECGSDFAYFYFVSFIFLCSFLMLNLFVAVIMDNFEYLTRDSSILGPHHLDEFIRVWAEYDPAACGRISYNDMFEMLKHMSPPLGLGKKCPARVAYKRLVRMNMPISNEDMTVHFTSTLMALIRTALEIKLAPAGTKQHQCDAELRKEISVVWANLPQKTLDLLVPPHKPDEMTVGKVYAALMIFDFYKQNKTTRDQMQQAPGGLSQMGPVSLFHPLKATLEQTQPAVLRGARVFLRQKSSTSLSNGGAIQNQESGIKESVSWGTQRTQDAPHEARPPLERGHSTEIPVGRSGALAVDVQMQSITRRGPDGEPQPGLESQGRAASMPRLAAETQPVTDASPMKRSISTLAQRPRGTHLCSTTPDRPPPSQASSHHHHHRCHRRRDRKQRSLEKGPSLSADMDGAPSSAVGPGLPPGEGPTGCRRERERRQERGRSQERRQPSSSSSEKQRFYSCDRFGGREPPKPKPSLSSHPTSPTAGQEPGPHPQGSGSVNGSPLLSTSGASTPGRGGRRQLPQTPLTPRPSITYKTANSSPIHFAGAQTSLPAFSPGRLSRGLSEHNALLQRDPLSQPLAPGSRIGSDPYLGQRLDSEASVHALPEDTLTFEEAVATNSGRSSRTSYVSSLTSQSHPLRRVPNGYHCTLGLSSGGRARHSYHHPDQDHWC

Sequence	Inhibition of the N-type calcium channel (N-type calcium channel)	Neuroprotection (infarct size) [1]
YGRKKRRQRRR [Tat]	sufficient to induce the observed inhibition	–
YGRKKRRQRRRKLSSIESDV [Tat-NR2B9c, known neuroprotective peptide]	–	neuroprotective as seen by a reduced infarct size
